This is an account of results in patent US20150175697A1 (MacroGenics, published 2015).

Experiment [1] has as its target T1, human serum albumin (HSA) (human, UniProt P02768 25-609).
T1 construct: also called HRP-human albumin
The experiment can be described thus: HSA binding class.

For a further experiment, the target named is T2, sCD32B-Ig (UniProt P31994 43-217).
T2 construct: extracellular domain; also called CD32B-Fc; CD32-Fc; not shown: Ig/Fc part not described
T2 sequence (looked up): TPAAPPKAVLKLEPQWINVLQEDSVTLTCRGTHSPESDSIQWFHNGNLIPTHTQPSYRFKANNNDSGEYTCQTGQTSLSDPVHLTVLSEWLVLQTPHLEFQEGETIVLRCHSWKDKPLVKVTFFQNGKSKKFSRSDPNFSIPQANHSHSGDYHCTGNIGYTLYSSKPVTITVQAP
The experiment can be described thus: sandwich ELISA, sCD32B-Ig coat, sCD16A probe. On the technique in general: In an ELISA, binding on a coated surface is turned into a signal by an enzyme label.

A further experiment deals with T3, soluble CD32A (sCD32A) (UniProt P12318 34-217, limits assumed).
T3 construct: extracellular domain; also called sCD32A (negative control)
T3 sequence (looked up): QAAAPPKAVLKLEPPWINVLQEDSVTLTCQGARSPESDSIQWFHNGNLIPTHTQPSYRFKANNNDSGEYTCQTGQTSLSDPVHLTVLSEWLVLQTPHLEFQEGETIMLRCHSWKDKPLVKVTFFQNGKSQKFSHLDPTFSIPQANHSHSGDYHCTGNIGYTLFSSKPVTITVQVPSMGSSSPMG
The experiment can be described thus: SPR (BIAcore): sCD32A (negative control) immobilised, diabody injected for 60 s. On the technique in general: In SPR one partner is held on a chip, and binding of the other changes the refractive index at the surface.

The target in a further experiment is T4, soluble CD32B (sCD32B) (human, UniProt P31994 43-217).
T4 construct: extracellular domain; also called FcγRIIB; soluble CD32B ectodomain
T4 sequence (looked up): T2 sequence (looked up)
Briefly: sandwich ELISA: sCD32B coated (sCD32B-Ig, 2 ug/ml), diabody titrated, labelled sCD16A as probe.

Consider LAEAKVLANRELDKYGVSDYYKNGANNAKTAEGVKALIDEILAALP (other, also called 64G/65A/71A) [ABD3 L64G/I65A/V71A], for which, in experiment [1], the HSA binding is less than 0.1.

B1: h3G8 covalent monospecific diabody (CMD) (other)
chain: DIVMTQSPDSLAVSLGERATINCKASQSVDFDGDSFMNWYQQKPGQPPKLLIYTTSNLESGVPDRFSGSGSGTDFTLTISSLQAEDVAVYYCQQSNEDPYTFGQGTKLEIKGGGSGGGGQVTLRESGPALVKPTQTLTLTCTFSGFSLSTSGMGVGWIRQPPGKALEWLAHIWWDDDKRYNPALKSRLTISKDTSKNQVVLTMTNMDPVDTATYYCAQINPAWFAYWGQGTLVTVSSLGGC
modifications: covalent homodimer: two copies of this chain, disulfide-linked through the C-terminal LGGC cysteine
notes: covalent homodimer; also called h3G8 CMD; h3G8 diabody
For B1, the results for the binding result with sCD32B-Ig, in the experiment with soluble CD32A (sCD32A) and in the experiment with soluble CD32B (sCD32B) were “no binding (tested: 0.5 µg/ml to 0.001 µg/ml)”, “no binding (tested: 100 nM)” and “no binding (tested: 0.5 ug/ml)”, respectively.
